Reference: the supplement of paper PMC9170038

Tested on: MS2 coat protein
Assay: apparent KD of MS2 coat protein; higher = weaker reporter binding
Conditions: Eterna round: R107; input ligand: arginine 13.2 mM
Summary of the method: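 Apparent KD per design is the median of normalised cluster binding-curve fits. Designed RNA switches transcribed on-chip from Illumina sequencing clusters were titrated with SNAP-549-labelled MS2 coat protein in twofold steps from 0.7 or 1.5 nM to 3 µM, with 0.8–1.5 h down to 10–20 min per step. Buffer: 100 mM Tris-HCl pH 7.5, 80 mM KCl, 4 mM MgCl2, without or with constant ligand.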

Sequence	apparent KD of MS2 coat protein [nM]
GGUUACUCUACGGCCGCCACUGAUUAUUUAUAAUCCUGUACAUAAACAUGAGGAUCACCCAUGUACAGGACCGGGUAGUGUAACC [Tryptophan B 11]	29.9
AAUUCCUAACAUGAGGAUCACCCAUGUGAAGGAGCGCGGAAUAACGCAGGUAGGUCGCACAUGGAACCGCUGCGAUAGCAGCAAA [MAT - Exclusion Arginine A - Mod of Eli - D29]	8.66

Same assay, conditions: Eterna round: R107; input ligand: none

Sequence	apparent KD of MS2 coat protein [nM]
UGCCGAGACGUGGAUUACCCGUGUACCGAAGGAGCGCCCGAAAGGGCAGGUAGGUCGCGGAGGACAUGAGGAUCACCCAUGUUUA	56.3
AAACAUGAGGAUCACCCAUGUAAAGUUGAAGGAGCGACCAGAGGGUCAGGUAGGUCGCAACACAUGAGGAUCACCCAUGUAUCGA [DOUBLE!!! :-D #5]	96.5
ACACAUGAGGAUCAUCCAUGUGCCCAUGAAGGAGCGUGGGAAACCACAGGUAGGUCGCAUGACAUGAGGAUCACCCAUGUUUAUU [#03 Exclusion - Arginine A]	204
GACAUGAGGAUCACCCAUGUGUAACCAGAAGGAGCGUGCGAAAGCACAGGUAGGUCGCUGGUGGGUUUAGGUUUAGUAGGUGUUC [SSAA NP+V+V2 #3]	69.2
GGGACAUGAGGAUCACCCAUGUACCGGUCCCGAGGACCGGUACGGCCGCCACUCGAUGACCUCAUAGUCUACUUGAGCAGUAGAC [Geeson]	22.1
GGGCCCGGGCGCGAGCCCGGGCCCAUUGAUACCAGUGAAUGUGUGCGCCCUUGGCAGCGAAUCCUAACAUGAGGAUCACCCAUGU [5.E]	28.6
GCACCAGGUACGGAUACCAGAGCAAGCCAAAUGAGUGAACUUGAGGAUCACCCAAGUUUGCUCCCUUGGCAGCCGUACCUGGUGC [ETB NP+V+V2 #12 Diff Apt, +-Same Structure]	9.39
ACAUGAGGAUCACCCAUGUCAUGAGGUUCACGAGGACCGGUACGGCCGCCACUCGACAUGAGGGUCACCCGUGAAGGGAACACCC [xdmullin]	22.7
GGCACCAGGAGAAGGAGCGUGAAGACAUGAGGAUCACCCAUGUAGAGGCCCGGACCGGGUUCGCAGGUAGGUCGCUCCUGGUGCC [#1 Same State - Arginine B Attempt #15 (HarryS)]	15.6
AGGACGGUCGGAAGGAGCGGUACAUGAGGAUCACCCAUGUAUUCCUGGGCAUCCGUAGUGUGCCAGGUAGGUCGCCGAUUGCGGG [XArg-B7]	32.7
UAUCCACAUGAGGAUCACCCAUGUUAGGAAGGAGCGGUGAAUGAACCAGGUAGGUCGCCUAGGUGAGGACCAUCUAUGGAUUCGU [Exclusion - Arginine A (Freestyle 12)]	13.3
GGUUGAAACUGAAGGAGCGAGAUGACAACAUUGGGUCUAACAUGAGGAUCACCCAUGUAAUCUCAGGUAGGUCGCAGUGACCAAA [Exclusion Arginine B GF 14]	50.2
GGUCUCUGGAGCGAUACCAGCUUAAUCGUACUGGCCAGGUACAUGAGGAUCACCCAUGUAAGCCCUUGGCAGCGCUCCAGAGACC [#1 Exclusion - Theophylline B Attempt #11 (HarryS)]	12.9
ACAAUAUUGAGUUUGUCUCAAGUUUCAGAAGGAGCGUGAGGAAUCACAGGUAGGUCGCUGAUAACAUGAGGAUCACCCAUGUAUU [JR_SSArginiA_Sub005]	35.7
UUUACAUGAGGAUCACCCAUGUGCCAUGAUACCAGACAUGAAAAUGUCCCUUGGCAGCAUGAGUGAAGCGUCGGGAAACCGACGC [Kninicky]	249
AAUUCCUAACAUGAGGAUCACCCAUGUGAAGGAGCGCGGAAUAACGCAGGUAGGUCGCACAUGGAACCGCUGCGAUAGCAGCAAA [MAT - Exclusion Arginine A - Mod of Eli - D29]	14.4

Same assay, conditions: Eterna round: R107; input ligand: theophylline 20 uM

Sequence	apparent KD of MS2 coat protein [nM]
UGCCGAGACGUGGAUUACCCGUGUACCGAAGGAGCGCCCGAAAGGGCAGGUAGGUCGCGGAGGACAUGAGGAUCACCCAUGUUUA	55
UUCUACAUGAGGAUCACCCAUGUGGGUGAUACCAGCACUUUUUGGUGCCCUUGGCAGCACAUGAGAAUACCGUACGAUCGGCGAU [Arainbi]	500
AAACAUGAGGAUCACCCAUGUAAAGUUGAAGGAGCGACCAGAGGGUCAGGUAGGUCGCAACACAUGAGGAUCACCCAUGUAUCGA [DOUBLE!!! :-D #5]	88.5
ACACAUGAGGAUCAUCCAUGUGCCCAUGAAGGAGCGUGGGAAACCACAGGUAGGUCGCAUGACAUGAGGAUCACCCAUGUUUAUU [#03 Exclusion - Arginine A]	203
ACGUCACGUUUACUCGUGGUUUCGUUCGAUACCAGUAGCGAGAGUUACCCUUGGCAGCGACAUGAGGAUCACCCAUGUACGAAGA [XTheo A #24]	15
CGGUUUGUGAUGGAUACCAGCAGUGUGGCUGUUUAUCCUGACAUGAGGAUCACCCAUGUGUGCCCUUGGCAGCUGUUGUGGGCUG [8.aC]	105
AGAUGAGUCACGGCCGCCACUCUUCACAGGUUCACCCUUGGUUAACAUGAGGAUCACCCAUGUGGGAGGACCGGGUGAUGAGCAU [XTryp B #5]	17.3
GACAUGAGGAUCACCCAUGUGUAACCAGAAGGAGCGUGCGAAAGCACAGGUAGGUCGCUGGUGGGUUUAGGUUUAGUAGGUGUUC [SSAA NP+V+V2 #3]	100
GGGACAUGAGGAUCACCCAUGUACCGGUCCCGAGGACCGGUACGGCCGCCACUCGAUGACCUCAUAGUCUACUUGAGCAGUAGAC [Geeson]	143
CUAAUUAAAUCGGCCGCCACUUACUCAUGAGGUAACAACAUGAGGAUCACCCAUGUUUGAGGAUCAAGGACCGGGAUUUAAUUAG [AstrosSSTry#23]	33.7
GGGCCCGGGCGCGAGCCCGGGCCCAUUGAUACCAGUGAAUGUGUGCGCCCUUGGCAGCGAAUCCUAACAUGAGGAUCACCCAUGU [5.E]	117
GCACCAGGUACGGAUACCAGAGCAAGCCAAAUGAGUGAACUUGAGGAUCACCCAAGUUUGCUCCCUUGGCAGCCGUACCUGGUGC [ETB NP+V+V2 #12 Diff Apt, +-Same Structure]	11.4
ACAUGAGGAUCACCCAUGUCAUGAGGUUCACGAGGACCGGUACGGCCGCCACUCGACAUGAGGGUCACCCGUGAAGGGAACACCC [xdmullin]	29.8
GGCACCAGGAGAAGGAGCGUGAAGACAUGAGGAUCACCCAUGUAGAGGCCCGGACCGGGUUCGCAGGUAGGUCGCUCCUGGUGCC [#1 Same State - Arginine B Attempt #15 (HarryS)]	17.9
AGAUGAGUCACGGCCGCCACUCACUACAGGUUCACCCUUGGUUAACAUGAGGAUCACCCAUGUGGGAGGACCGGGUGAUGAGCAU [XTryp B #4]	32.7
UUUAAAUAGACGGCCGCCACUGGAAUUAAUACAUGAGGAUCACCCAUGUAGAGAGAAUAAUAAUACAGGACCGGGUCUUCAUGAA [SS Tryp B Tesla 1]	22.1
ACGCCCGCCUCACAUGAGGAUCACCCAUGUCGAGGACCGGUACGGCCGCCACUCGUCGUCGGUAAUACGGGCGUUGAAUAAUAUA [Atedon]	14.9
AAUUAAUUAACCGAUACCAGCCAACCAAAACAUGAGGAUCACCCAUGUAAGAAGAAGGGUGGCCCUUGGCAGCGGUUAAUUAAUU	16.7
AGGACGGUCGGAAGGAGCGGUACAUGAGGAUCACCCAUGUAUUCCUGGGCAUCCGUAGUGUGCCAGGUAGGUCGCCGAUUGCGGG [XArg-B7]	109
